In US20140087995A1 (published 2014):
Numbered stars: 1 amine (or outer) side, 2 acyl side, 3 side chain; on linkers, the order of the positions; unused ones are H or OH. Bridge positions count the residues as written; N and C are the ends. Side chains are listed from the residue outwards. Ends that are not written are not given here. * marks the point of attachment. C20 diacid = O=C(O)CCCCCCCCCCCCCCCCCCC(=O)*; γGlu = O=C(O)[C@H](CCC(=O)[*:2])N[*:1]

T1: rat calcitonin receptor (rat, UniProt P32214 25-516)
T1 construct: whole, on cells; Used as membranes prepared from the transfected cells; also called rCTR; rCT
T1 sequence (looked up): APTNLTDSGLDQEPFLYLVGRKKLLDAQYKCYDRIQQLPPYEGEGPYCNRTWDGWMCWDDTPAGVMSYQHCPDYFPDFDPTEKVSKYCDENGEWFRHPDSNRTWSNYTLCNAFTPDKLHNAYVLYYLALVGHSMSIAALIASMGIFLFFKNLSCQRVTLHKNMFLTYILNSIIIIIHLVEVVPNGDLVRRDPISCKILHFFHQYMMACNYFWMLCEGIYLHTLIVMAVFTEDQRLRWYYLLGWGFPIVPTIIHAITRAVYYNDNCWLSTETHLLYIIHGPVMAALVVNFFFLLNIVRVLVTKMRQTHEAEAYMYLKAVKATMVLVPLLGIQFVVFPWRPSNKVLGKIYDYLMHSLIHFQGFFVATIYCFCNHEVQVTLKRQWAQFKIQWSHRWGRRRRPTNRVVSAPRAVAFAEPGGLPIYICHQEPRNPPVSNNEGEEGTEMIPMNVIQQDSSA

T2: human calcitonin receptor (human, UniProt P30988 25-474)
T2 construct: whole, on cells; Used as membranes prepared from the transfected cells; also called hCTR; hCT
T2 sequence (looked up): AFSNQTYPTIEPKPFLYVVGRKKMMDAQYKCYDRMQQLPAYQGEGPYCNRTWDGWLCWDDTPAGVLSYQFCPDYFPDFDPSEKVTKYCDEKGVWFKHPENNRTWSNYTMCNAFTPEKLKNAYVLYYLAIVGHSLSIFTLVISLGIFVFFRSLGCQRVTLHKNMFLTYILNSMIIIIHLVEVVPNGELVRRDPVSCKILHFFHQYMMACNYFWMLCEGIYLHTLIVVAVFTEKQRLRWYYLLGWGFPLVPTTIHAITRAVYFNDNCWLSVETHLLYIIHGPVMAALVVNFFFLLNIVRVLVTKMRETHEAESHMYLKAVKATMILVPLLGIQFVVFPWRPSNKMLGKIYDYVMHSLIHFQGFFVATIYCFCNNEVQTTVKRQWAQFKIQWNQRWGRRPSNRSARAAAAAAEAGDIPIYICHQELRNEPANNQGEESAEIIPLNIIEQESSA

B1: N^ε1-[(4S)-4-carboxy-4-(19-carboxynonadecanoylamino)butanoyl]-[His14,Arg17,Pro21,Pro27,Arg34]-h-amylin (peptide)
peptide: K([γGlu-C20 diacid])CNTATCATQRLAHFLRHSSPNFGAIPSSTNVGRNTY-NH2
modifications: disulfide 2-7; N-terminus assumed
SMILES: CC[C@H](C)[C@H](NC(=O)[C@H](C)NC(=O)CNC(=O)[C@H](Cc1ccccc1)NC(=O)[C@H](CC(N)=O)NC(=O)[C@@H]1CCCN1C(=O)[C@H](CO)NC(=O)[C@H](CO)NC(=O)[C@H](Cc1c[nH]cn1)NC(=O)[C@H](CCCNC(=N)N)NC(=O)[C@H](CC(C)C)NC(=O)[C@H](Cc1ccccc1)NC(=O)[C@H](Cc1c[nH]cn1)NC(=O)[C@H](C)NC(=O)[C@H](CC(C)C)NC(=O)[C@H](CCCNC(=N)N)NC(=O)[C@H](CCC(N)=O)NC(=O)[C@@H](NC(=O)[C@H](C)NC(=O)[C@@H]1CSSC[C@H](NC(=O)[C@@H](N)CCCCNC(=O)CC[C@H](NC(=O)CCCCCCCCCCCCCCCCCCC(=O)O)C(=O)O)C(=O)N[C@@H](CC(N)=O)C(=O)N[C@@H]([C@@H](C)O)C(=O)N[C@@H](C)C(=O)N[C@@H]([C@@H](C)O)C(=O)N1)[C@@H](C)O)C(=O)N1CCC[C@H]1C(=O)N[C@@H](CO)C(=O)N[C@@H](CO)C(=O)N[C@H](C(=O)N[C@@H](CC(N)=O)C(=O)N[C@H](C(=O)NCC(=O)N[C@@H](CCCNC(=N)N)C(=O)N[C@@H](CC(N)=O)C(=O)N[C@H](C(=O)N[C@@H](Cc1ccc(O)cc1)C(N)=O)[C@@H](C)O)C(C)C)[C@@H](C)O
notes: Analogue of human amylin; disulfide and C-terminal amide as told for h-amylin; also called compound 85
B2: N^ε1-[(4S)-4-carboxy-4-[[(4S)-4-carboxy-4-(19-carboxynonadecanoylamino)butanoyl]amino]butanoyl]-[Glu14,Arg17,Pro21,Pro27,Arg34]-h-amylin (peptide)
peptide: K([γGlu-γGlu-C20 diacid])CNTATCATQRLAEFLRHSSPNFGAIPSSTNVGRNTY-NH2
modifications: disulfide 2-7; N-terminus assumed
SMILES: CC[C@H](C)[C@H](NC(=O)[C@H](C)NC(=O)CNC(=O)[C@H](Cc1ccccc1)NC(=O)[C@H](CC(N)=O)NC(=O)[C@@H]1CCCN1C(=O)[C@H](CO)NC(=O)[C@H](CO)NC(=O)[C@H](Cc1c[nH]cn1)NC(=O)[C@H](CCCNC(=N)N)NC(=O)[C@H](CC(C)C)NC(=O)[C@H](Cc1ccccc1)NC(=O)[C@H](CCC(=O)O)NC(=O)[C@H](C)NC(=O)[C@H](CC(C)C)NC(=O)[C@H](CCCNC(=N)N)NC(=O)[C@H](CCC(N)=O)NC(=O)[C@@H](NC(=O)[C@H](C)NC(=O)[C@@H]1CSSC[C@H](NC(=O)[C@@H](N)CCCCNC(=O)CC[C@H](NC(=O)CC[C@H](NC(=O)CCCCCCCCCCCCCCCCCCC(=O)O)C(=O)O)C(=O)O)C(=O)N[C@@H](CC(N)=O)C(=O)N[C@@H]([C@@H](C)O)C(=O)N[C@@H](C)C(=O)N[C@@H]([C@@H](C)O)C(=O)N1)[C@@H](C)O)C(=O)N1CCC[C@H]1C(=O)N[C@@H](CO)C(=O)N[C@@H](CO)C(=O)N[C@H](C(=O)N[C@@H](CC(N)=O)C(=O)N[C@H](C(=O)NCC(=O)N[C@@H](CCCNC(=N)N)C(=O)N[C@@H](CC(N)=O)C(=O)N[C@H](C(=O)N[C@@H](Cc1ccc(O)cc1)C(N)=O)[C@@H](C)O)C(C)C)[C@@H](C)O
notes: Analogue of human amylin; disulfide and C-terminal amide as told for h-amylin; also called compound 88
B3: N^ε1-[(4S)-4-carboxy-4-(19-carboxynonadecanoylamino)butanoyl]-[His14,Arg17,Pro21,Pro27,His35]-h-amylin (peptide)
peptide: K([γGlu-C20 diacid])CNTATCATQRLAHFLRHSSPNFGAIPSSTNVGSHTY-NH2
modifications: disulfide 2-7; N-terminus assumed
SMILES: CC[C@H](C)[C@H](NC(=O)[C@H](C)NC(=O)CNC(=O)[C@H](Cc1ccccc1)NC(=O)[C@H](CC(N)=O)NC(=O)[C@@H]1CCCN1C(=O)[C@H](CO)NC(=O)[C@H](CO)NC(=O)[C@H](Cc1c[nH]cn1)NC(=O)[C@H](CCCNC(=N)N)NC(=O)[C@H](CC(C)C)NC(=O)[C@H](Cc1ccccc1)NC(=O)[C@H](Cc1c[nH]cn1)NC(=O)[C@H](C)NC(=O)[C@H](CC(C)C)NC(=O)[C@H](CCCNC(=N)N)NC(=O)[C@H](CCC(N)=O)NC(=O)[C@@H](NC(=O)[C@H](C)NC(=O)[C@@H]1CSSC[C@H](NC(=O)[C@@H](N)CCCCNC(=O)CC[C@H](NC(=O)CCCCCCCCCCCCCCCCCCC(=O)O)C(=O)O)C(=O)N[C@@H](CC(N)=O)C(=O)N[C@@H]([C@@H](C)O)C(=O)N[C@@H](C)C(=O)N[C@@H]([C@@H](C)O)C(=O)N1)[C@@H](C)O)C(=O)N1CCC[C@H]1C(=O)N[C@@H](CO)C(=O)N[C@@H](CO)C(=O)N[C@H](C(=O)N[C@@H](CC(N)=O)C(=O)N[C@H](C(=O)NCC(=O)N[C@@H](CO)C(=O)N[C@@H](Cc1c[nH]cn1)C(=O)N[C@H](C(=O)N[C@@H](Cc1ccc(O)cc1)C(N)=O)[C@@H](C)O)C(C)C)[C@@H](C)O
notes: Analogue of human amylin; disulfide and C-terminal amide as told for h-amylin; also called compound 66
B4: N^ε1-[(4S)-4-carboxy-4-[[(4S)-4-carboxy-4-(19-carboxynonadecanoylamino)butanoyl]amino]butanoyl]-[Arg17,Pro21,Pro27,His34]-h-amylin (peptide)
peptide: K([γGlu-γGlu-C20 diacid])CNTATCATQRLANFLRHSSPNFGAIPSSTNVGHNTY-NH2
modifications: disulfide 2-7; N-terminus assumed
SMILES: CC[C@H](C)[C@H](NC(=O)[C@H](C)NC(=O)CNC(=O)[C@H](Cc1ccccc1)NC(=O)[C@H](CC(N)=O)NC(=O)[C@@H]1CCCN1C(=O)[C@H](CO)NC(=O)[C@H](CO)NC(=O)[C@H](Cc1c[nH]cn1)NC(=O)[C@H](CCCNC(=N)N)NC(=O)[C@H](CC(C)C)NC(=O)[C@H](Cc1ccccc1)NC(=O)[C@H](CC(N)=O)NC(=O)[C@H](C)NC(=O)[C@H](CC(C)C)NC(=O)[C@H](CCCNC(=N)N)NC(=O)[C@H](CCC(N)=O)NC(=O)[C@@H](NC(=O)[C@H](C)NC(=O)[C@@H]1CSSC[C@H](NC(=O)[C@@H](N)CCCCNC(=O)CC[C@H](NC(=O)CC[C@H](NC(=O)CCCCCCCCCCCCCCCCCCC(=O)O)C(=O)O)C(=O)O)C(=O)N[C@@H](CC(N)=O)C(=O)N[C@@H]([C@@H](C)O)C(=O)N[C@@H](C)C(=O)N[C@@H]([C@@H](C)O)C(=O)N1)[C@@H](C)O)C(=O)N1CCC[C@H]1C(=O)N[C@@H](CO)C(=O)N[C@@H](CO)C(=O)N[C@H](C(=O)N[C@@H](CC(N)=O)C(=O)N[C@H](C(=O)NCC(=O)N[C@@H](Cc1c[nH]cn1)C(=O)N[C@@H](CC(N)=O)C(=O)N[C@H](C(=O)N[C@@H](Cc1ccc(O)cc1)C(N)=O)[C@@H](C)O)C(C)C)[C@@H](C)O
notes: Analogue of human amylin; disulfide and C-terminal amide as told for h-amylin; also called compound 86
B5: N^ε1-[(4S)-4-carboxy-4-(19-carboxynonadecanoylamino)butanoyl]-[His14,Arg17,Pro21,Pro27,His34]-h-amylin (peptide)
peptide: K([γGlu-C20 diacid])CNTATCATQRLAHFLRHSSPNFGAIPSSTNVGHNTY-NH2
modifications: disulfide 2-7; N-terminus assumed
SMILES: CC[C@H](C)[C@H](NC(=O)[C@H](C)NC(=O)CNC(=O)[C@H](Cc1ccccc1)NC(=O)[C@H](CC(N)=O)NC(=O)[C@@H]1CCCN1C(=O)[C@H](CO)NC(=O)[C@H](CO)NC(=O)[C@H](Cc1c[nH]cn1)NC(=O)[C@H](CCCNC(=N)N)NC(=O)[C@H](CC(C)C)NC(=O)[C@H](Cc1ccccc1)NC(=O)[C@H](Cc1c[nH]cn1)NC(=O)[C@H](C)NC(=O)[C@H](CC(C)C)NC(=O)[C@H](CCCNC(=N)N)NC(=O)[C@H](CCC(N)=O)NC(=O)[C@@H](NC(=O)[C@H](C)NC(=O)[C@@H]1CSSC[C@H](NC(=O)[C@@H](N)CCCCNC(=O)CC[C@H](NC(=O)CCCCCCCCCCCCCCCCCCC(=O)O)C(=O)O)C(=O)N[C@@H](CC(N)=O)C(=O)N[C@@H]([C@@H](C)O)C(=O)N[C@@H](C)C(=O)N[C@@H]([C@@H](C)O)C(=O)N1)[C@@H](C)O)C(=O)N1CCC[C@H]1C(=O)N[C@@H](CO)C(=O)N[C@@H](CO)C(=O)N[C@H](C(=O)N[C@@H](CC(N)=O)C(=O)N[C@H](C(=O)NCC(=O)N[C@@H](Cc1c[nH]cn1)C(=O)N[C@@H](CC(N)=O)C(=O)N[C@H](C(=O)N[C@@H](Cc1ccc(O)cc1)C(N)=O)[C@@H](C)O)C(C)C)[C@@H](C)O
notes: Analogue of human amylin; disulfide and C-terminal amide as told for h-amylin; also called compound 81

Molecular target: T1, rat calcitonin receptor
Test: SPA competition with 125I-calcitonin, membranes with rat calcitonin receptor (Assay VIII)

Row | IC50 | Binder
1 | 146 nM | B1
2 | 196 nM | B2
3 | 20.8 nM | B3
4 | 352 nM | B4
5 | 61.1 nM | B5

Molecular target: T1, rat calcitonin receptor
Test: ratio of binding IC50 at rat calcitonin receptor to IC50 at rat amylin receptor (reference)

Row | Ratio rCT/rAmylin binding | Binder
6 | 46.5 | B1
7 | 84.9 | B2
8 | 35.8 | B3
9 | 126 | B4
10 | 42.9 | B5

Molecular target: T2, human calcitonin receptor
Test: ratio of binding IC50 at human calcitonin receptor to IC50 at human amylin receptor (reference)
How it was run: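 Scintillation proximity competition binding on cell membranes at 35 ng/μL with SPA beads, in 50 mM Hepes pH 7.4, 1 mM CaCl2, 5 mM MgCl₂, 0.1% OA, 0.02% Tween20. Incubated 120 min at 25° C with shaking. IC₅₀ from one-site competition fit.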

Row | Ratio hCT/hAmylin binding | Binder
11 | 91.8 | B1
12 | 46.5 | B2
13 | 45.5 | B3
14 | 159 | B4
15 | 87.2 | B5
